Data: US20050158807A1

Biological target: Fas receptor on cultured mouse thyroid follicular cells (mouse) (UniProt P25446)
Assay: cell-based or functional assay

Chain of UniProt P25446 (P25446 22-327): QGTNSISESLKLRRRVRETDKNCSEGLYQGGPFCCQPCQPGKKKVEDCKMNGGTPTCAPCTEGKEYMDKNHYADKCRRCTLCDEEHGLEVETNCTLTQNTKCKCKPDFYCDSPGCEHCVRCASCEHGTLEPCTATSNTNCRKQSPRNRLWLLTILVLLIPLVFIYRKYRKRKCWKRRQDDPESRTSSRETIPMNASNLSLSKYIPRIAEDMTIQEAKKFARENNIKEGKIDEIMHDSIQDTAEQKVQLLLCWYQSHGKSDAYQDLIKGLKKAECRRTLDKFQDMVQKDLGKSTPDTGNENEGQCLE

- percentage of proliferation increase of anti-Fas versus control cultures ([3H] thymidine), 48 h: 37%
- percentage of proliferation increase of anti-Fas versus control cultures ([3H] thymidine), 72 h: 49%
- percentage of proliferation increase of anti-Fas versus control cultures ([3H] thymidine), 96 h: 61%
Substance: clone Jo2 anti-Fas antibody (Pharmingen)
